Data reported in patent US20250122303A1, “TREATMENT AND PREVENTION OF CANCER USING HER3 ANTIGEN-BINDING MOLECULES” (Hummingbird Bioscience Pte. Ltd., priority 2021, published 2025).

Tests used:
[1] = system: A549 cell-line derived mouse model of lung adenocarcinoma; assay: A549 cell-line derived xenograft model; type: in vivo; settings: A549, NCr nude mice, IP biweekly 500 μg, 10 doses
FaDu cells = assay: Phosphoprotein Antibody Array; type: cell-based, human; settings: 50 μg/ml 4 hrs, NRG 100 ng/ml
Protocol: FaDu cells were seeded in wells of a 6 well plate with 10% serum at 37° C., 5% CO2. After 16 hrs, cells were starved by culture overnight in 1% FBS cell culture medium. On the following day cells were treated with 50 μg/ml anti-HER3 antibody 10D1 for 4 hrs, followed by 15 min stimulation with NRG (100 ng/ml). Proteins were then extracted, quantified using standard Bradford protein assay, and incubated overnight with pre-blocked Phosphoprotein Antibody Array membrane (Ray Biotech) at 4° C. The membrane was then washed with washing buffer and incubated with detection antibody cocktail for 2 hrs at room temperature, followed by washing and incubation with HRP-Conjugated anti-IgG. After 2 hrs the membrane was washed and probed using the kit detection buffer. Images were captured with Syngene Gbox imaging system, the intensity of each dot/phosphoprotein was measured and percent inhibition was calculated by comparison with intensity measured for cells treated in the same way in the absence of the antibody.

human HER3 = human HER3 (Homo sapiens, UniProt P21860); assay: Global affinity study, Bio-Layer Interferometry (Octet QK384); type: binding; settings: IgG1 format, 25° C.; read-out: KD
Protocol: The anti-HER3 antibody clones in IgG1 format were analysed for binding affinity to human HER3. Bio-Layer Interferometry (BLI) experiments were performed using the Octet QK384 system (ForteBio). anti-Human IgG Capture (AHC) Octet sensor tips (Pall ForteBio, USA) were used to anti-HER3 antibodies (25 nM). All measurements were performed at 25° C. with agitation at 1000 rpm. Kinetic measurements for antigen binding were performed by loading His-tagged human HER3 antigens at different concentrations for 120 s, followed by a 120 s dissociation time by transferring the biosensors into assay buffer containing wells. Sensograms were referenced for buffer effects and then fitted using the Octet QK384 user software (Pall ForteBio, USA). Kinetic responses were subjected to a global fitting using a one site binding model to obtain values for association (Kon), dissociation (Koff) rate constants and the equilibrium dissociation constant (KD). Only curves that could be reliably fitted with the software (R^2>0.90) were included in the analysis.
Bio-Layer Interferometry (BLI) experiments were performed using the Octet QK384 system (ForteBio). […] Binding was detected using titrated HIS-tagged human HER3 in steps of baseline (60 s), loading (120 s), baseline2 (60 s), association (120 s), dissociation (FcA 120 s, FcB 600 s) and regeneration (15 s). Sensorgrams were analysed as described in Example 3.3. […]

cynomolgus macaque HER3 = assay: ELISA cross-reactivity, cynomolgus macaque HER3; type: binding
Protocol: ELISAs were used to determine the binding specificity of the antibodies. The antibodies were analysed for binding to human HER3 polypeptide, as well as respective mouse, rat and monkey homologues of HER3 (Sino Biological Inc., China). The antibodies were also analysed for their ability to bind to human EGFR and human HER2 (Sino Biological Inc., China).
ELISAs were carried out according to standard protocols. Briefly, 96-well plates (Nunc, Denmark) were coated with 0.1 μg/ml of target polypeptide in phosphate-buffered saline (PBS) for 16 h at 4° C. After blocking for 1 h with 1% BSA in Tris buffer saline (TBS) at room temperature, the anti-HER3 antibody was serially diluted with the highest concentration being 10 μg/ml, and added to the plate. Post 1 h incubation at room temperature, plates were washed three times with TBS containing 0.05% Tween 20 (TBS-T) and were then incubated with a HRP-conjugated anti-His antibody (Life Technologies, Inc., USA) for 1 h at room temperature. After washing, plates were developed with colorimetric detection substrate 3,3′,5,5′-tetramethylbenzidine (Turbo-TMB; Pierce, USA) for 10 min. The reaction was stopped with 2M H2SO4, and OD was measured at 450 nm. […]

HER3-mediated signalling = assay: Phospho-western blot of HER3-mediated signalling in cancer cell lines; type: cell-based, human; settings: N87 and FaDu cells, 50 μg/ml 4 hrs, NRG 100 ng/ml
Protocol: Briefly, N87 and FaDu cells were seeded in wells of a 6 well plate with 10% serum at 37° C., 5% CO2. After 16 hrs, cells were starved by culture overnight in 1% FBS cell culture medium (to reduce signalling elicited by growth factors in the serum). On the following day cells were treated with 50 μg/ml anti-HER3 antibody 10D1 for 4 hrs, followed by 15 min stimulation with NRG (100 ng/ml). Proteins were then extracted, quantified using standard Bradford protein assay, fractionated by SDS-PAGE, and transferred to nitrocellulose membranes. The membranes were then blocked and immunoblotted with the following antibodies overnight at 4° C. anti-pHER3, anti-pAKT, pan anti-HER3, pan anti-AKT and anti-beta-actin. The blots were visualized via Bio-Rad Clarity Western ECL substrate, and bands were quantified using densiometric analysis; data were normalized to beta actin controls.
N87, FaDu or OvCAR8 cells were seeded in wells in a 6 well plate with 10% serum overnight at 37° C. with 5% CO2.
Before harvesting, cells were stimulated with 100 ng/ml of NRG1. Protein extracted from cell lines were quantified using standard Bradford protein assay. Protein samples (50 μg) were fractionated by SDS-PAGE and transferred to nitrocellulose membrane. […] The blots were quantified using densiometric analysis and data was normalised to beta actin. […]

[2] = type: physicochemical; settings: 0.2 mg/mL in PBS, three samples
Protocol: 3.4 Analysis of thermostability by Differential Scanning Fluorimetry Briefly, triplicate reaction mixes of antibodies at 0.2 mg/mL and SYPRO Orange dye (ThermoFisher) were prepared in 25 μL of PBS, transferred to wells of MicroAmp Optical 96-Well Reaction Plates (ThermoFisher), and sealed with MicroAmp Optical Adhesive Film (ThermoFisher). Melting curves were run in a 7500 fast Real-Time PCR system (Applied Biosystems) selecting TAMRA as reporter and ROX as passive reference. The thermal profile included an initial step of 2 min at 25° C. and a final step of 2 min at 99° C., with a ramp rate of 1.2%. The first derivative of the raw data was plotted as a function of temperature to obtain the derivative melting curves. Melting temperatures (Tm) of the antibodies were extracted from the peaks of the derivative curves.
The thermostability of the variant was also analysed by Differential Scanning Fluorimetry analysis as described in Example 3.4.

B1: 10D1: anti-HER3 antibody clone, VH SEQ ID NO:24, VL SEQ ID NO:74; [1] of Example 2.2 (antibody, V domains shown)
VH: DVQLQESGPDLVKPSQSLSLTCTVTGYSITSGYSWHWIRQFPGNKLEWMGSIHYSGGTNYNPSLKSRISITRDTSKNQFFLQLNSVTTEDTATYFCARMTTAPRYPFDYWGQGTTLTVSS
VL: DIVMTQSQKFMSTSVGDRVSVTCKASQIVGSNVAWYQQKPGQSPKPLIYSASYRYSGVPDRFTASGSGTDFTLTITNVQSEDLAEYFCQQYSSHPLTFGAGTKLELK
inhibition of tumor growth [1]: ~91% | intracellular signalling pathways affected (FaDu cells): inhibit P13K/AKT/mTOR and MAPK signalling | Kd (human HER3): 9.58 nM | binding / cross-reactivity with cynomolgus macaque HER3 (cynomolgus macaque HER3): substantial cross-reactivity | HER3 phosphorylation and downstream signalling (HER3-mediated signalling): inhibit HER3 phosphorylation and downstream signalling | Tm [2]: 70.3 °C
